Experimental findings from PMC10837205 (Cell Research, 2024) are described below.

As a reminder, the Kd is the concentration at which binding is half-saturated.

In this test the target is T1, biotinylated soluble human LDLR (sohLDLR) (human, UniProt P01130-1 22-788, biotin (biotinylated; site not stated)).
T1 construct: also called biotinylated LDLR; soluble biotinylated LDLR; source: bought: SinoBiological #10231-H08H-B
In words: BLI. To be noted: both partners purified.

T1 sequence (P01130 22-788): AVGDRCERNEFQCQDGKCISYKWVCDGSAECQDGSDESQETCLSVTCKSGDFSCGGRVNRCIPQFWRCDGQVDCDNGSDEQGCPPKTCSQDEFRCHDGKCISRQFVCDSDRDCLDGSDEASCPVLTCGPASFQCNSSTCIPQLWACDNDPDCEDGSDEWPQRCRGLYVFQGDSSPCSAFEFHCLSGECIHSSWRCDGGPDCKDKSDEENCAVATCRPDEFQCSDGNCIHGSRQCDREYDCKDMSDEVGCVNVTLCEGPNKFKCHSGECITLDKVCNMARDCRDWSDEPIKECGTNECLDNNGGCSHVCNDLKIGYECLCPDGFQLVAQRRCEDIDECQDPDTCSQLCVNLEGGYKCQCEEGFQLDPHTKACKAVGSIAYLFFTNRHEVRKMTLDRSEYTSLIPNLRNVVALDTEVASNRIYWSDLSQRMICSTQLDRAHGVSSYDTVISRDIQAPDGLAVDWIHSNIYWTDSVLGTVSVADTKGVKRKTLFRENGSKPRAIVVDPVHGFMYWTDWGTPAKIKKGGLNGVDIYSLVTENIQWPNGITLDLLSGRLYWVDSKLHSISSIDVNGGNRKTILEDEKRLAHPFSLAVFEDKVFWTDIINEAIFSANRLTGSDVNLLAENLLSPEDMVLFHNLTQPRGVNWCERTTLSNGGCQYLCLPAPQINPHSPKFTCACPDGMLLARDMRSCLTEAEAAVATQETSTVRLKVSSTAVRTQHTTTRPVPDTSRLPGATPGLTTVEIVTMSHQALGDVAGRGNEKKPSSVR

B1: VSV G protein (Indiana strain) (natural protein)
chain: KFTIVFPHNQKGNWKNVPSNYHYCPSSSDLNWHNDLIGTAIQVKMPKSHKAIQADGWMCHASKWVTTCDFRWYGPKYITQSIRSFTPSVEQCKESIEQTKQGTWLNPGFPPQSCGYATVTDAEAVIVQVTPHHVLVDEYTGEWVDSQFINGKCSNYICPTVHNSTTWHSDYKVKGLCDSNLISMDITFFSEDGELSSLGKEGTGFRSNYFAYETGGKACKMQYCKHWGVRLPSGVWFEMADKDLFAAARFPECPEGSSISAPSQTSVDVSLIQDVERILDYSLCQETWSKIRAGLPISPVDLSYLAPKNPGTGPAFTIINGTLKYFETRYIRVDIAAPILSRMVGMISGTTTERELWDDWAPYEDVEIGPNGVLRTSSGYKFPLYMIGHGMLDSDLHLSSKAQVFEHPHIQDAASQLPDDESLFFGDTGLSKNPIELVEGWFSSWKSSIASFFFIIGLIIGLFLVLRVGIHLCIKLKHTKKRQIYTDIEMNRLGK
The molecule B1 registered a Kd of 54.3 nM.
